Data reported in patent US20120244131.

Test system: T1, SC_RAG single-chain meganuclease (I-CreI derived) (artificial sequence)
T1 sequence: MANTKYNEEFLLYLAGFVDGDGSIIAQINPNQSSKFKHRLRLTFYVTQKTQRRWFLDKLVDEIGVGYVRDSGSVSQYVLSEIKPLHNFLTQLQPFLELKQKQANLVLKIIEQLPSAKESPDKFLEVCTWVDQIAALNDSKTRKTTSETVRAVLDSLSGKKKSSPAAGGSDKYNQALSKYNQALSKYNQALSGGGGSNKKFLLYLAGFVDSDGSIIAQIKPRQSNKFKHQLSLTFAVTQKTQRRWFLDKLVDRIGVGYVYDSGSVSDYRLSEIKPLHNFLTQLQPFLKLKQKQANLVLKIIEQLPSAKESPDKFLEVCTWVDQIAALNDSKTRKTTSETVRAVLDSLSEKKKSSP
Experiment: cell_activity
Conditions: endogenous locus in 293H, siRNA control AS, deep sequencing, +/-0.13

Substance: endogenous human RAG1 locus target of SC_RAG
- activity (% NHEJ mutagenesis): 0.66
